Results reported in patent US5624904A, “Method for treating gram positive septicemia” (Massachusetts Institute of Technology, priority 1993, dated 1997).

Tests used:
[1] = tested on: soluble MSRP; assay: bead-binding competition assay: ligands interfering with binding of labeled soluble receptor to poly G beads, M-BSA beads or LTA; conditions: inhibitor at 400 μg/ml
Method: The ability of the soluble MSRP to block scavenger receptor-mediated cellular metabolism of known MSRP ligands, such as radiolabeled endotoxin, whole Gram-positive bacteria, or LTA, is measured by competitive inhibition assays. […] This bead-binding assay can be used to measure the association of endotoxin, lipid IVA, LTA, and similar molecules, to soluble forms of the MSRP.

[2] = tested on: Enterococcus hirae; assay: microbial binding assay (whole cell assay) of [35S]s-bSR-I
Method: (§1) Gram-positive bacteria were grown overnight either on LB agar plates (L. monocytogenes, B. subtilis) or on 5% sheep blood agar plates (all other organisms). Fresh colonies were inoculated into Todd Hewitt Broth (DIFCO) and were grown to stationary phase (16-18 hours; 1×10^9 CFU/1 ml) at 37° C. without shaking. Initial experiments indicated greater binding of MSRP to organisms grown to stationary phase compared to organisms used at log phase. Thus, stationary phase organisms were used in all experiments, although results were similar for log phase organisms.
(§2) All bacterial strains were harvested by centrifugation at 3500×g for 10 minutes and washed twice in cold Buffer B (20 mM Tris base at pH 8.0/150 mM NaCl/0.05% NAN3) before resuspending to a final density of approximately 1×10^9 bacteria/ml (O.D.600 =2.0).
(§3) [^35 S]methionine-labeled conditioned medium was prepared from transfected CHO[s-bSRI]-A2 cells and untransfected CHO cells. The media were designated [^35 S]s-bSR-I medium (containing s-bSR-I) and [^35 S]control medium (containing no s-bSR-I) respectively. As described by D. Resnick et al., 268 J. Biol. Chem. 3538-3545 (1993), CHO[s-bSR-1]-A2 and untransfected CHO cells were plated at a density of 9×10^5 cells/100 mm dish in medium B. Cells were grown to 80% confluence (approximately 48 hours), washed, and metabolically labeled by addition of 4.5 ml of medium A prepared with methionine- and cysteine-freeHam's F-12 and supplemented with 0.2 mM L-cysteine, and 80 μCi/mi [^35 S]methionine (Trans ^35 S-label with 70% methionine, purchased from ICN Biomedicals, Irvine, Calif.). After a 5 hour incubation at 37° C., supernatants were collected, and protease inhibitors and Buffer A+BSA (20 mM Tris base at pH 8.0/150 mM NaCl/1 mM CaCl2; containing 2 mg/ml bovine serum albumin and 0.05% NAN3) were added at final concentrations of 1 mM phenylmethylsulfonylfluoride (PMSF) (Sigma, St. Louis, Mo.), 1 μM leupeptin (Sigma), and 1 μM pepstatin (Sigma); 2:1 volume ratio of supernatant to buffer. The samples were then clarified by centrifugation (1000×g, 15 minutes, 4° C.) and stored in Falcon 2099 tubes that had been precoated with Buffer A+BSA.
(§4) Thirty minutes prior to binding assays, unlabeled L-methionine ((Sigma, St. Louis, Mo.) at 10 mM final concentration was added to suspensions of microorganisms grown as described above to minimize incorporation of free [^35 S]methionine into microbial proteins during the assays. One ml assay mixtures containing 200 μl of bacterial suspension (approximately2×10^8 bacteria), 50 μl of Buffer A (20 mM Tris base at pH 8.0/150 mM NaCl/1 mM CaCl2), and 750 μl of either [^35 S]s-bSR-I or [^35 S]control medium were prepared in microcentrifuge tubes and incubated overnight on a rotator at 4° C. Maleylated bovine serum albumin (M-BSA) was coupled to CNBr-activated Sepharose™ (Pharmacia Fine Chemicals, Piscataway, N.J.) at approximately 3 mg M-BSA/mi hydrated resin. Suspensions of M-BSA-coupled Sepharose™ beads (M-BSA beads) (25 μl ) were used in place of microorganism suspensions as positive controls.
(§5) After the overnight incubation, the bacteria or beads were pelleted by centrifugation in a microcentrifuge at 12,500×g for 5 minutes at 4° C. and washed twice with cold buffer A. In experiments examining the ability of LTA to inhibit the binding of the s-bSR-I to M-BSA beads, the beads were allowed to settle by gravity before each washing step, to prevent pelleting of LTA micelies. The washed pellets were then resuspended in SDS-PAGE sample buffer containing 2% β-mercaptoethanol, boiled for 5 minutes, and insoluble material was removed by centrifugation at 12,500×g for 2 minutes. The reduced samples were fractionated by electrophoresis through 10% polyacrylamide gels, as described by Resnick et al. (1993), and the labeled proteins were visualized by autoradiography with Kodak X-AR film. […]

[3] = tested on: Streptococcus agalactiae; assay: as above
Method: as §1, §2, §3, §4, §5

[4] = tested on: Streptococcus pyogenes; assay: as above
Method: as §1, §2, §3, §4, §5

[5] = tested on: Gram-positive bacteria; assay: microbial binding assay (whole cell assay), all species and strains of Table I; conditions: for binding of [35S]s-bSR-I to Gram-positive bacteria: all species and strains tested (Table I)
Method: as §1, §2
as §3, with “The samples were then clarified by centrifugation (1000×g, 15 minutes, 4° C.) and stored in Falcon 2099 tubes that had been precoated with Buffer A+BSA.” left out

[6] = tested on: P388D1 cells; assay: cell binding assay: FITC-labeled S. pyogenes T1/195/2 bound to macrophage-like cells expressing MSRP; type: cell-based, murine; conditions: 30 minutes 37° C., mean ± SD of three experiments, without poly G 72±8
Method: The ability of poly G to inhibit S. pyogenes binding was used in experiments to examine the interaction of FITC-labeled pyogenes (strain T1/195/2) with a cultured murine macrophage-like cell line, P388D1, shown previously to express MSRP by J. Ashkenas et al., 34 J. Lipid Res. 983-1000 (1993).
P388D1 cells were maintained in dishes in Ham's F-12 with 10% fetal calf serum, 100 units/ml penicillin, and 100 μg/ml streptomycin. For experiments, approximately 12,500 cells were plated on 1 cm glass cover slips, in media lacking antibiotics. Cells were allowed to adhere for at least 24-36 hours, then washed in Ham's F-12 containing 10% fetal calf serum. S. pyogenes, either unlabeled or FITC-labeled, was added (final dilution of 1:250 from a stock solution of O.D.600 =1.0) in the presence or absence of varying concentrations of poly G. Mixtures were incubated for 30 minutes at 37° C. in 5% CO2, then washed three times in PBS, and fixed with 100% cold methanol. Samples containing non-FITC labeled organisms were Gram-stained, then cover slips were mounted with Moviol and DAPCO. Slides were viewed in blinded fashion by two observers using fluorescence and phase contrast microscopy and a Nikon Microphot FXA epifluorescence microscope. The results (bacteria bound per 100 P388D1 cells) represent the means ± standard deviations determined from three experiments in which at least 100 P388D1 cells were counted for each condition.

[7] = tested on: Bacillus subtilis; assay: microbial binding assay (whole cell assay) of [35S]s-bSR-I
Method: as §1, §2, §3, §4, §5

[8] = tested on: Listeria monocytogenes; assay: as above
Method: as §1, §2, §3, §4, §5

[9] = tested on: Staphylococcus aureus; assay: as above
Method: as §1, §2, §3, §4, §5

[10] = tested on: Streptococcus mutans; assay: as above
Method: as §1, §2, §3, §4, §5

[11] = tested on: S. pneumoniae; assay: as above; parameters: species or system Streptococcus pneumoniae; conditions: two encapsulated and one rough strain
Method: as §1, §2
[^35 S]methionine-labeled conditioned medium was prepared from transfected CHO[s-bSRI]-A2 cells and untransfected CHO cells. The media were designated [^35 S]s-bSR-I medium (containing s-bSR-I) and [^35 S]control medium (containing no s-bSR-I) respectively. […]

maleylated BSA: maleylated bovine serum albumin, MSRP ligand
competition with binding of labeled soluble receptor to poly G beads, M-BSA beads, or LTA [1]: successful competitors

poly C
competition with binding of labeled soluble receptor to poly G beads, M-BSA beads, or LTA [1]: failed to compete

polyGuanosine [poly G, reference compound]
competition with binding of labeled soluble receptor to poly G beads, M-BSA beads, or LTA [1]: successful competitors
competition with binding of receptor to Enterococcus hirae ([2]; 400 μg/ml poly G): competed
competition with binding of receptor to S. agalactiae ([3]; 400 μg/ml poly G): competed
competition with binding of S. pyogenes to s-bSR-I ([4]; poly G 400 μ/ml added to assay mixture): effective competitor
competition of poly G with [35S]s-bSR-I binding to Gram-positive bacteria ([5]; extent of competition varied slightly between organisms): competitive
number of cell associated bacteria/100 P388D1 cells ([6]; poly G 2 μg/ml): 43±4 bacteria/100 P388D1 cells
number of cell associated bacteria/100 P388D1 cells ([6]; poly G 20 μg/ml): 28±9 bacteria/100 P388D1 cells
number of cell associated bacteria/100 P388D1 cells ([6]; poly G 200 μg/ml): 22±5 bacteria/100 P388D1 cells

B1: s-bSR-I: truncated, secreted trimeric form of the type I bovine macrophage scavenger receptor containing all four extracellular domains, expressed in CHO cells (protein, UniProt P21758 77-453, looked up)
extracellular domain: KWETKNCTVGSVNADISPSPEGKGNGSEDEMRFREAVMERMSNMESRIQYLSDNEANLLDAKNFQNFSITTDQRFNDVLFQLNSLLSSIQEHENIIGDISKSLVGLNTTVLDLQFSIETLNGRVQENAFKQQEEMRKLEERIYNASAEIKSLDEKQVYLEQEIKGEMKLLNNITNDLRLKDWEHSQTLKNITLLQGPPGPPGEKGDRGPPGQNGIPGFPGLIGTPGLKGDRGISGLPGVRGFPGPMGKTGKPGLNGQKGQKGEKGSGSMQRQSNTVRLVGGSGPHEGRVEIFHEGQWGTVCDDRWELRGGLVVCRSLGYKGVQSVHKRAYFGKGTGPIWLNEVFCFGKESSIEECRIRQWGVRACSHDEDAGVTCTT
modifications: extracellular domain
notes: truncated, secreted trimeric form of the type I bovine macrophage scavenger receptor containing all four extracellular domains, expressed in CHO cells
binding of [35S]s-bSR-I to Bacillus subtilis [7]: bound
binding of [35S]s-bSR-I to Enterococcus hirae ([2]; strain 9790, overnight 4° C., autoradiography): bound
binding of [35S]s-bSR-I to Listeria monocytogenes [8]: bound
binding of [35S]s-bSR-I to Staphylococcus aureus [9]: bound
[35S]s-bSR-I binding, capsule-minus transposon mutants versus parent strains ([9]; S. aureus isogenic mutants): equivalently or better
[35S]s-bSR-I binding, capsule-minus transposon mutants versus parent strains ([3]; S. agalactiae isogenic mutants): equivalently or better
binding of [35S]s-bSR-I to S. agalactiae ([3]; overnight 4° C., autoradiography): bound
binding of [35S]s-bSR-I to Streptococcus mutans [10]: bound
binding of [35S]s-bSR-I to S. pyogenes ([4]; eleven strains, seven different M protein types (Table I), overnight 4° C., SDS-PAGE/autoradiography): bound
dependence of [35S]s-bSR-I binding on bacterial protein synthesis or viability ([4]; organisms preincubated with 50 μg/ml chloramphenicol or 0.05% NaN3, or killed at 60° C. for 10 minutes): neither decreased
specificity of [35S]s-bSR-I binding to S. pyogenes ([4]; strain T1/195/2): specific
s-bSR-I binding, M protein-negative mutant versus parent ([4]; type 28 strain T28/150A/5 and spontaneous M protein-negative mutant T28/51/4-4): equivalently
[35S]s-bSR-I binding, acapsular mutant versus wild type ([4]; wild type 87-282 and hyaluronic acid-negative transposon mutant TX4): equally well
binding of [35S]s-bSR-I to S. pneumoniae [11]: minimal binding
binding of [35S]s-bSR-I to Gram-positive bacteria [5]: bound
binding of [35S]s-bSR-I to Gram-positive bacteria ([5]; listed as secreted Type I Bovine MSRP): Bound
